Experimental data published in publication PMC2443151.

Legend:
[1] = molecular target: PLA2 (phospholipase A2) from Crotalus durissus cascavella rattlesnake venom (Crotalus durissus cascavella)
[2] = molecular target: PLA2 (phospholipase A2) from Crotalus durissus cascavella rattlesnake venom (Crotalus durissus cascavella); remark: listed apart in the source

Substance: BTL-2, isolectin from the red marine alga Bryothamnion triquetrum (natural protein)
- aggregation of washed human platelets induced by PLA2 after 30 min incubation with BTL-2, at 1 μg and 3 μg (72.7% and 48.8%), compared to PLA2 alone [1]: 72.7%
- enzymatic activity of PLA2 on 4-nitro-3-octanoyloxy-benzoic acid after incubation with BTL-2; increase against PLA2 alone [2]: 23%
